In patent publication US9994644B2, “mAB 2 anti-Met antibody” (Agency for Science, Technology and Research, priority 2013, dated 2018):
Entries after “also recorded” stand apart in the source; their conditions may differ.

Legend:
SNU-5 cells [1] = test: Cell growth by cell count (ADAM cell counter); format: cell-based, human; details: SNU-5, 10 μg/mL mAb, 72 hours post treatment
Protocol: (§1) In order to determine if these antibodies have any physiological effects on tumour cells, 10 μg/mL of mAb was added to SNU-5 cells. […] This indicates SU11274 mode of mechanism is by activation of caspase which in turn result in apoptosis of SNU-5 tumour cells.
Cells were seeded and treated with anti-α-chain c-Met monoclonal antibodies for 72 hrs. Cells were harvested and counted using the automated ADAM cell counter (Digital Bio, Korea).

SNU-5 cells [2] = test: Cell proliferation by CellTracker Green BODIPY dye retention; format: cell-based, human; details: SNU-5, 10 μg/mL mAb, 6 days
Protocol: CellTracker BODIPY dye is a membrane permeable dye that enters cells freely. Once in the cell, the dye is converted to a membrane impermeable product which labels the cell green. The dye is passed on to dividing daughter cells but is not transferable to neighbouring cells. Dividing cells would fail to retain the green dye as it is being diluted to progeny cells. Cells were treated with 10 μg/mL of monoclonal antibodies for 6 days and dye retention in cells was analysed by flow cytometry.
SNU-5 cells were stained with 5 μM of CellTracker BODIPY dye for 30 mins. Stained cells were seeded and treated with anti-α-chain c-Met monoclonal antibodies for 6 days. Cells were harvested and dye retention in live cells were analysed by flow cytometry.

[3] = test system: caspase activation in SNU-5 cells; test: Caspase-Glo 3/7 caspase activation assay; format: cell-based, human; details: SNU-5, 72 hrs; mAb 10 μg/mL, SU11274 5 μM
Protocol: as §1
(§2) CellTiter-Glo® luminescent cell viability assay and Caspase-Glo® 3/7 Assay (Promega, U.S.A.) were used to determine cell viability and caspase activation respectively. SNU-5 cells (1×10^5 cells) were seeded in each 96-well and treated for 72 hrs before analysis. Cell viability and caspase activation were performed according to manufacturer's protocol. Luminescence was read using the EnVision plate reader (PerkinElmer, U.S.A.).

SNU-5 cells [4] = test: Annexin V staining (cell death); format: cell-based, human
SNU-5 cells [5] = test: CellTiter-Glo luminescent cell viability assay; format: cell-based, human; details: SNU-5, 72 hrs; mAb 10 μg/mL, SU11274 5 μM
Protocol: as §1, §2

[6] = target: T1, native c-Met on live SNU-5 cells (Homo sapiens, UniProt P08581); test: Flow cytometry of antibody binding to live SNU-5 cells; details: 1 μg/mL mAb, FITC secondary antibody
T1 construct: native c-Met expressed on the cell surface of SNU-5 cells; host or cells: SNU-5
Protocol: Flow cytometry was used to determine if our monoclonal antibodies could bind to native c-Met on live cells. SNU-5 cells were incubated with 1 μg/mL of monoclonal antibody. Binding of anti-α-chain c-Met monoclonal antibodies to native c-Met expressed on the cell surface of SNU-5 cells was detected using anti-mouse secondary antibody conjugated with FITC dye. T47D, a human breast cancer cell line expressing low levels of c-Met, was used in this assay to determine if the antibodies bind non-specifically to the cell surface.
SNU-5 cells (1×10^6 cells) were washed once in cold PBS before blocking in 1% BSA/PBS. Cells were washed twice before incubating with anti-α-chain c-Met monoclonal antibodies. 1 μg/mL anti-α-chain monoclonal antibodies were used. Cells were incubated with goat anti-mouse IgG FITC-conjugated secondary antibodies (Invitrogen) and finally resuspended in 1% BSA/PBS. Flow cytometry was performed using Becton Dickinson (U.S.A.) FACScan. Cell Quest (Becton Dickinson) and FlowJo (Tree Star Inc., U.S.A.) software was used for data analysis.

[7] = target: T1, native c-Met on live SNU-5 cells; test: Temperature sensitivity of antibody binding by flow cytometry; details: live SNU-5, 10 μg/mL mAb, 1 hr
Protocol: To determine if temperature affects the binding affinity of anti-α-chain monoclonal antibody to native c-Met, mAb 2, 13, 11 and 18 were incubated with live SNU-5 cells at 4° C. or 37° C. Binding of monoclonal antibody to native c-Met expressed on the cell surface of live SNU-5 cells was detected using anti-mouse secondary antibody conjugated with Alexa Fluor®488 dye and analysed by flow cytometry. Antibody binding, which correlates with fluorescence intensity, was compared at the different temperatures. […] It is plausible that the reduction of antibody binding is due to the unavailability of antibody's epitope on native c-Met expressed on live SNU-5 cells. c-Met is a dynamic protein at normal physiological temperature and becomes rigid at low temperature, causing certain epitopes to be obscured.
10 μg/mL of anti-α-chain monoclonal antibody were incubated with live SNU-5 cells for 1 hr at 4° C. or 37° C. Cells were harvested and washed once in cold PBS. Antibody binding to live cells was determined by Alexa Fluor®488-conjugated anti-mouse secondary antibodies (Invitrogen #A11029). Cells were resuspended in 1% BSA/PBS and analysed by flow cytometry.

SNU-5 cells [8] = test: Immunofluorescence of antibody internalisation; format: cell-based, human; details: SNU-5, 10 μg/mL mAb
Protocol: In order to determine if mAb 2 and 13 were internalised into the cell upon antibody binding, SNU-5 cells were incubated with 10 μg/mL of anti-α-chain monoclonal antibody. Monoclonal antibody treated cells were fixed and permeablised. Bound and internalised antibody was detected by anti-mouse Alexa Fluor®488-conjugated secondary antibody. Antibody localisation was observed by confocal microscopy.
10 μg/mL of anti-α-chain monoclonal antibody were incubated with live SNU-5 cells for 1 hr at 4° C. or 37° C. Antibody-treated cells were washed once with PBS and deposited onto polylysine-coated slides (Thermo Scientific, #5991056) using the Thermo Shandon Cytospin 3 Cytofuge (Thermo Scientific) at 800 rpm for 5 mins and fixed immediately in 4% paraformaldehyde. Cells were then blocked and permeablised in PBS containing 0.4% Triton X-100 and 5% BSA. Bound anti-α-chain c-Met antibodies were detected using anti-mouse Alexa Fluor®488-conjugated secondary antibody. Phallodin was added together with the secondary antibodies. Cells were washed before staining with 4′,6′-diamidino-2-phenylindole (DAPI) and mounted with Hydromount (National Diagnostics, U.S.A.) containing 2.5% DABCO (1,4-Diazabicyclo-[2.2.2]octane) (Sigma-Aldrich) as an anti-bleaching agent Immunofluorescence was observed using Nikon Eclipse E600 microscope.

T1 sequence (P08581 25-1390): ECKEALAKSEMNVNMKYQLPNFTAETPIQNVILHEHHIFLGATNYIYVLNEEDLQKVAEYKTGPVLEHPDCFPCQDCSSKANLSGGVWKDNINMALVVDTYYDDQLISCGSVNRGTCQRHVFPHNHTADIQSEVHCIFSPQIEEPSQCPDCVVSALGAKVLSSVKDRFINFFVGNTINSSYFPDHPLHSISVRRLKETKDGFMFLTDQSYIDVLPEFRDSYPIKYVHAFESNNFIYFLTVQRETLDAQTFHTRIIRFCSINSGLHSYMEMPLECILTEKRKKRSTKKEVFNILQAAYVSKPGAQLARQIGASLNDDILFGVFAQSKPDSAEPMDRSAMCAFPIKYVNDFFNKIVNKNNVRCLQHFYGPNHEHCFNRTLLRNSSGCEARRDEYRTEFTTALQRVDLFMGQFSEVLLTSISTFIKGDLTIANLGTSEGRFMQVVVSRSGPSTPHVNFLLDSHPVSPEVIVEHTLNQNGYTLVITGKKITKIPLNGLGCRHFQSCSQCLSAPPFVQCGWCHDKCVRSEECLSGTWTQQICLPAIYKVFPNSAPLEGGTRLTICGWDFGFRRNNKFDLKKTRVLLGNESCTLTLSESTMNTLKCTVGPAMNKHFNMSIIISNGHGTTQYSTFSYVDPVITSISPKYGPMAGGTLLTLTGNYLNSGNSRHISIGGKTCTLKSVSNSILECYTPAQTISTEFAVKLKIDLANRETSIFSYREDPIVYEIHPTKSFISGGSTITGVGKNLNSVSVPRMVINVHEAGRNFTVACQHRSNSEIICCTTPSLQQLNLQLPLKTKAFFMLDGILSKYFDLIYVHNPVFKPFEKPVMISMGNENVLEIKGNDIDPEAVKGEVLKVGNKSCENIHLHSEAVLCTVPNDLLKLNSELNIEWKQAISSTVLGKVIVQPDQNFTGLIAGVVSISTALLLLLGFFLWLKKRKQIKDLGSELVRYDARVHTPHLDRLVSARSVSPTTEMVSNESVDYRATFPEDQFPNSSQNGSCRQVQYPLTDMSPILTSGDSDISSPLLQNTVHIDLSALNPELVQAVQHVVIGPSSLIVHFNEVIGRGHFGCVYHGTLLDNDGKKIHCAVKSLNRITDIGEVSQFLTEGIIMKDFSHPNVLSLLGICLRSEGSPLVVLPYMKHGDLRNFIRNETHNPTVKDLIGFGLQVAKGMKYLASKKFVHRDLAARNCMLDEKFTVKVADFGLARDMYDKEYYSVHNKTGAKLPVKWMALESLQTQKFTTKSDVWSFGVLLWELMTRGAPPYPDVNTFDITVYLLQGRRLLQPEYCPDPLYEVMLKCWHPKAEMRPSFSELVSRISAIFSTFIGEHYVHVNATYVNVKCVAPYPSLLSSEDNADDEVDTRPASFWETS

B1: mAb 2: murine bivalent anti-α-chain c-Met monoclonal antibody, IgG1, kappa; CDRs SEQ ID NO: 2-7; epitope IEE and CPDC (antibody, listed as Homo sapiens)
heavy: QVQLKESGGGLVQPGGSLTLSCATSGFTFTDHYMSWVRQPPGKALEWLAFIRNKAKGYTTEYNASVRGRFTISRDNSQNIVYLQMNTLRTEDSATYYCARDGVGIAYWGQTLVTVSAAKTTPPSVYPLAP
light: SIVMTQSPLSLPVSLGDQASISCRSSQSLENINGNTYKNWYFQKPGQSPQLLIYRVSNRVSGVLDRFSGSGSGTDFTLKITRVEAEDLGVYFCLQVTHVPWTFGGGTKLEIKRADAAPTKSIS
cell growth (cell count) (SNU-5 cells [1]): strongest cell growth reduction; also recorded: reduction of SNU-5 cell growth; also recorded: most effective in reducing cell proliferation | CellTracker Green BODIPY fluorescence retention (SNU-5 cells [2]): retained significant levels of green fluorescence | caspase activation [3]: reduced caspase activation; also recorded: do not activate caspase activation | cell death (annexin V staining) (SNU-5 cells [4]): do not cause cell death | cell viability (SNU-5 cells [5]): reduced cell viability | binding to native c-Met (fluorescence intensity) [6]: strongest fluorescence intensity; also recorded: strongest binding; also recorded: highest fluorescence staining; also recorded: high affinity and specificity; also recorded: strongly | change of antibody binding between 4° C. and 37° C. [7]: most drastic peak shift; also recorded: temperature sensitive | internalisation into the cell (SNU-5 cells [8]): internalised upon binding to c-Met; also recorded: internalised into the tumour cell | antibody localisation at 4° C. (SNU-5 cells [8]; 1 hr, 4° C.): localised on the cell membrane with diffused cytoplasmic staining | antibody localisation at 37° C. (SNU-5 cells [8]; 1 hr, 37° C.): increase staining was observed in the cytoplasm
